# Results taken from patent US12156920B2, “Double-labeled probe for molecular imaging and use thereof” (Deutsches Krebsforschungszentrum, priority 2017, dated 2024).
# Like-named read-outs stand apart in the source and are kept apart here.
# How the values were obtained:
# PSMA+ LNCaP cells = assay: Internalization experiments (specific cell surface bound and internalized fractions); format: cell-based; details: 68Ga-labeled compound 30 nM, 45 min
# Procedure: (§1) PSMA^+ LNCaP cells (ATCC CRL-1740) were cultured in RPMI medium supplemented with 10% fetal calf serum and 2 mmol/L L-glutamine (all from PAA). Cells were grown at 37° C. in humidified air with 5% CO2 and were harvested using trypsin-ethylenediaminetetraacetic acid (trypsin-EDTA; 0.25% trypsin, 0.02% EDTA, Invitrogen).
# For internalization experiments, 10^5 cells per well were seeded in poly-L-lysine coated 24-well cell culture plates 24 h before incubation. After washing, the cells were incubated with 30 nM of the radiolabeled compound for 45 min at 37° C. and at 4° C., respectively. Cellular uptake was terminated by washing 3 times with 1 mL of ice-cold PBS. To remove surface-bound radioactivity, cells were incubated twice with 0.5 mL glycine-HCl in PBS (50 mM, pH=2.8) for 5 min. The cells were washed with 1 mL of ice-cold PBS and lysed using 0.3 N NaOH (0.5 mL). The surface-bound and the internalized fractions were measured in a gamma counter. The cell uptake was calculated as percent of the initially added radioactivity bound to 10^5 cells [% ID/10^5 cells].
# PSMA = target: T1, PSMA (Homo sapiens, UniProt Q04609); assay: Competitive cell binding assay on LNCaP cells (PSMA binding affinity); details: competition against 0.2 nM 68Ga-labeled PSMA-10
# T1 construct: endogenous in cells; host or cells: LNCaP cells (ATCC CRL-1740)
# Procedure: as §1
# The competitive cell binding assay and internalization experiments were performed as described previously (4). Briefly, the cells (10^5 per well) were incubated with a 0.2 nM solution of ^68Ga-labeled radioligand [Glu-urea-Lys(Ahx)]2-HBED-CC (PSMA-10, precursor ordered from ABX, Radeberg, Germany) in the presence of 12 different concentrations of analyte (0-5000 nM, 100 μL/well). After incubation, the mixture was removed and the wells were washed 3 times with PBS using a multiscreen vacuum manifold (Millipore, Billerica, Mass.). Cell-bound radioactivity was measured using a gamma counter (Packard Cobra II, GMI, Minnesota, USA). The 50% inhibitory concentration (IC50) values were calculated by fitting the data using a nonlinear regression algorithm (GraphPad Software).
# [1] = system: LNCaP-tumor bearing balb/c nu/nu mice; assay: Biodistribution (organ distribution) of 68Ga-labeled compounds; format: in vivo
# Procedure: (§2) The precursor peptides [1 nmol in HEPES buffer (580 mg/ml), 90 μL] were added to 40 μL [^68Ga]Ga^3+ eluate (˜40 MBq). The pH was adjusted to 3.8 using 30% NaOH and 10% NaOH, respectively. The reaction mixture was incubated at 98° C. for 10 minutes. The radiochemical yield (RCY) was determined by HPLC. For the experimental tumor models 5×10^6 cells of LNCaP (in 50% Matrigel; Becton Dickinson, Heidelberg, Germany) were subcutaneously inoculated into the right trunk of 7- to 8-week-old male BALB/c nu/nu mice (Charles River). The tumors were allowed to grow until approximately 1 cm^3 in size. The ^68Ga-labeled compounds were injected into a tail vein (1-2 MBq; 60 pmol). […] Organs of interest were dissected, blotted dry, and weighed. The radioactivity was measured using a gamma counter and calculated as % ID/g. All animal experiments complied with the current laws of the Federal Republic of Germany.
# [2] = as above; format: in vivo, mice; details: male, BALB/c nu/nu, mouse, iv, 60 pmol, total radioactivity
# Procedure: as §2
# [3] = listed as PSMA-HBED-CC-PEG2-IRDye8000CW
# [4] = in vivo, Organ distribution Blood
# [5] = in vivo, Organ distribution Brain
# [6] = in vivo, Organ distribution Heart
# [7] = in vivo, Organ distribution Intestine
# [8] = in vivo, Organ distribution Kidney
# [9] = in vivo, Organ distribution Liver
# [10] = in vivo, Organ distribution Lung
# [11] = in vivo, Organ distribution Muscle
# [12] = in vivo, Organ distribution Spleen
# T1 sequence (Q04609 whole entry): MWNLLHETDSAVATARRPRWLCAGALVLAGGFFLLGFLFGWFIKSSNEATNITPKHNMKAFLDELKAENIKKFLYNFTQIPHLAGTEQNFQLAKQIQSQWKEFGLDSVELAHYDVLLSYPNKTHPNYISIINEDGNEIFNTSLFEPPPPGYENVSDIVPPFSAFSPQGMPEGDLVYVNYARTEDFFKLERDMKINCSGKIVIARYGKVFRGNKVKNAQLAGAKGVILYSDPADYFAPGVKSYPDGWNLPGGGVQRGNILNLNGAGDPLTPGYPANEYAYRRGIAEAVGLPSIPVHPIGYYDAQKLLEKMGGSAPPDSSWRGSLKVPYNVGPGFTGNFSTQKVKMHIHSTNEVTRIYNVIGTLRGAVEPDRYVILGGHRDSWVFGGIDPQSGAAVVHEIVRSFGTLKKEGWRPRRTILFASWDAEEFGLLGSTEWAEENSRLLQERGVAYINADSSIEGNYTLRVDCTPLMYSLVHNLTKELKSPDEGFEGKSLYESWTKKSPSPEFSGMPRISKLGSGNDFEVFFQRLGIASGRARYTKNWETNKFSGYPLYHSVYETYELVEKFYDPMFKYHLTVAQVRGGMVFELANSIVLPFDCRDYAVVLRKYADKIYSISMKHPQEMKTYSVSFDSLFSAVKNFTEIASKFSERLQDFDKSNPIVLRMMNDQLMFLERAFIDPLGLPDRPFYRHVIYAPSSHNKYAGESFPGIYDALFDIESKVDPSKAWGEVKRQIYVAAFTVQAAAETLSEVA
smiles,measurement,setting,value
"CC1(C)C(/C=C/C2=C(Oc3ccc(S(=O)(=O)O)cc3)C(=C\C=C3/N(CCCCS(=O)(=O)O)c4ccc(S(=O)(=O)O)cc4C3(C)C)/CCC2)=[N+](CCCCCC(=O)NCCOCCOCCNC(=O)CCc2ccc(O)c(CN(CCN(CC(=O)O)Cc3cc(CCC(=O)NCCCCC(NC(=O)NC(CCC(=O)O)C(=O)O)C(=O)O)ccc3O)CC(=O)O)c2)c2ccc(S(=O)(=O)O)cc21 (stereo not shown) [PSMA-HBED-CC-PEG2-IRDye800CW, Glu-urea-Lys-HBED-CC-PEG2-IRDye800CW, reference compound]",Specific cell surface bound,PSMA+ LNCaP cells,improved
same,Specific internalized,PSMA+ LNCaP cells,improved
same,Specific cell surface bound,PSMA+ LNCaP cells; [3],13.62 ± 4.79 % ID/10^5 cells
same,Specific internalized,PSMA+ LNCaP cells; [3],18.70 ± 7.03 % ID/10^5 cells
same,Ki,PSMA,0.0175 ± 0.00498 µM
same,Tumor-to-Organ ratio T/Kidney,"[1]; 68Ga labeled, 1 h p.i.",0.07
same,Tumor-to-Organ ratio T/Blood,"[1]; mouse, in vivo",4.49
same,Tumor-to-Organ ratio T/Brain,"[1]; mouse, in vivo",31.39
same,Tumor-to-Organ ratio T/Heart,"[1]; mouse, in vivo",4.92
same,Tumor-to-Organ ratio T/Intestine,"[1]; mouse, in vivo",5.66
same,Tumor-to-Organ ratio T/Liver,"[1]; mouse, in vivo",4.94
same,Tumor-to-Organ ratio T/Lung,"[1]; mouse, in vivo",2.44
same,Tumor-to-Organ ratio T/Muscle,"[1]; mouse, in vivo",4.78
same,Tumor-to-Organ ratio T/Spleen,"[1]; mouse, in vivo",0.36
same,tissue uptake at 1 h,[2]; [4],3.04 %ID/g
same,tissue uptake at 2 h,[2]; [4],0.76 %ID/g
same,tissue uptake at 1 h,[2]; [5],0.43 %ID/g
same,tissue uptake at 2 h,[2]; [5],0.22 %ID/g
same,tissue uptake at 1 h,[2]; [6],2.78 %ID/g
same,tissue uptake at 2 h,[2]; [6],1 %ID/g
same,tissue uptake at 1 h,[2]; [7],2.41 %ID/g
same,tissue uptake at 2 h,[2]; [7],1.37 %ID/g
same,tissue uptake at 1 h,[2]; [8],205 %ID/g
same,tissue uptake at 2 h,[2]; [8],120 %ID/g
same,tissue uptake at 1 h,[2]; [9],2.76 %ID/g
same,tissue uptake at 2 h,[2]; [9],1.21 %ID/g
same,tissue uptake at 1 h,[2]; [10],5.6 %ID/g
same,tissue uptake at 2 h,[2]; [10],2.53 %ID/g
same,tissue uptake at 1 h,[2]; [11],2.86 %ID/g
same,tissue uptake at 2 h,[2]; [11],1.96 %ID/g
same,tissue uptake at 1 h,[2]; [12],38.1 %ID/g
same,tissue uptake at 2 h,[2]; [12],13.7 %ID/g
same,tissue uptake at 2 h,"[2]; in vivo, Organ distribution Tumor",7.94 %ID/g
same,tissue uptake at 1 h,"[2]; in vivo, Organ distribution Tumor (tumor accumulation)",13.7 %ID/g
same,tissue to tissue ratio at 1 h,"[2]; in vivo, Tumor-to-Organ ratio T/Blood",4.49
same,tissue to tissue ratio at 1 h,"[2]; in vivo, Tumor-to-Organ ratio T/Brain",31.4
same,tissue to tissue ratio at 1 h,"[2]; in vivo, Tumor-to-Organ ratio T/Heart",4.92
same,tissue to tissue ratio at 1 h,"[2]; in vivo, Tumor-to-Organ ratio T/Intestine",5.66
same,tissue to tissue ratio at 1 h,"[2]; in vivo, Tumor-to-Organ ratio T/Liver",4.94
same,tissue to tissue ratio at 1 h,"[2]; in vivo, Tumor-to-Organ ratio T/Lung",2.44
same,tissue to tissue ratio at 1 h,"[2]; in vivo, Tumor-to-Organ ratio T/Muscle",4.78
same,tissue to tissue ratio at 1 h,"[2]; in vivo, Tumor-to-Organ ratio T/Spleen",0.36
same,tissue to tissue ratio at 1 h,"[2]; tumor and kidney, 68Ga labeled, 1 h p.i., read-out: Tumor-to-Organ ratio T/Kidney",0.07
